B1: Hairpin Ribozyme (parent)
chain: GUCCUCUUUCACGUGCGCGUGAAAGAGAGAAGUGAACCAGAGAAACACACGUUGUGGUAUAUUACCUGGUA

Variants of: B1
Test: self-cleavage, relative activity (ratio to wild type); higher = more cleavage; co-transcriptional

Variant | self-cleavage
A23G U63G | 0.338
A23C G54C | 0.337
A22U G34A | 1.24
A23G G68U | 0.198
A23G G68A | 0.311
A23G G68C | 0.101
A23C C66U | 0.448
A23C C66A | 0.218
A22U G29A | 0.13
A23G A30G | 0.211
G25A A44G | 0.158
G25A A44C | 0.139
A23U G56A | 0.237
A23U G56U | 0.184
A23C A35G | 0.942
A23U U55C | 0.358
A23U C38G | 0.167
A23U C38A | 0.17
A24G A39G | 0.308
A22U A61U | 0.198
A22U A61G | 0.155
A22U A61C | 0.171
G25A A39C | 0.374
A24G G40U | 0.147

Variant | self-cleavage
A24G A43G | 0.132
A23U U58A | 0.539
A22U A41G | 0.776
A22U A41U | 1.14
A23G U67G | 0.18
A24C G32U | 0.166
A22U U33A | 0.172
A24U C48A | 0.0466
A24U A35C | 0.951
A24U A35U | 0.584
A24U G40U | 0.187
A24U G40A | 0.281
A22U U70A | 0.768
A22U U70G | 0.674
A22U A36G | 0.849
A22U A36C | 0.589
A24C U53G | 0.733
A24C G34C | 1.07
A24C G34U | 1.43
A23G G34C | 1.07
A24U G54C | 0.423
A24U G54A | 0.472
A24C A39U | 0.573
A23C A44G | 0.056

Variant | self-cleavage
A23C A44U | 0.129
A24U U63C | 0.233
A24G C48G | 0.181
A24G C48U | 0.179
A23G A44C | 0.0975
G25A A28U | 0.585
G25A A28C | 0.394
A23C A43U | 0.115
A23U G54A | 0.551
A23U G51A | 0.844
A23U G51C | 0.832
A23C U60G | 0.61
A23U U53A | 0.969
A23U U53G | 0.696
A23U U53C | 0.935
A24U C50A | 0.346
A23C U67A | 0.211
A23C U67C | 0.249
A24G G57A | 0.228
A24G G57C | 0.118
A24G A45G | 0.104
A24C A45C | 0.235
A24C A45G | 0.171
A22U A47U | 0.202

Variant | self-cleavage
A22U A47C | 0.345
A23U G32A | 0.147
A23U G32U | 0.19
A23C A24G | 0.85
A23C A24C | 0.718
A24C A36G | 0.928
A24U A59U | 0.185
A23G C46A | 0.132
A23G C46G | 0.245
A22U G68U | 0.188
A22U G68A | 0.389
A24U G27C | 0.194
A23G A31G | 0.416
A23C A59C | 0.193
A23C A59G | 0.143
A24G U63C | 0.0931
A24G A64U | 0.135
A23G G56U | 0.162
A23G G56C | 0.145
A23C C38U | 0.398
A23C C38A | 0.161
A23G A35C | 1
A23G A35U | 0.626
A23C A28G | 0.977

Variant | self-cleavage
A23C A28C | 0.349
A23G A41C | 1.19
A23G A41U | 1.09
A23C G40C | 0.0333
A24U U67G | 0.231
A24U U67C | 0.207
A24G G51A | 0.745
A24G G51U | 0.881
A24G G69U | 0.13
A23C C50U | 0.373
A23C C50G | 0.259
A23C C50A | 0.318
A23G G42C | 0.33
A24C U55C | 0.305
A24C U55A | 0.267
A24U G56U | 0.232
A23U A43G | 0.204
A22U A39U | 0.359
A24C G27A | 0.341
A24U G29U | 0.0631
A24U G29A | 0.146
A22U U62A | 0.161
A22U U62C | 0.127
A23C C65A | 0.818

Variant | self-cleavage
A23C C65U | 0.282
A24U G69A | 0.327
A23C A31C | 0.185
A23C A31U | 0.179
A23C U33C | 0.307
A23C U33G | 0.171
A22U C50U | 0.342
A22U C50A | 0.211
A23C A61C | 0.143
A23C G25A | 0.235
A22U A45U | 0.143
A24C U33A | 0.2
A23U A71C | 1.28
A22U A44C | 0.239
A22U A44G | 0.113
A24C A28C | 0.349
A22U U55G | 0.298
A23U U52G | 0.753
A24U A45G | 0.241
A23U G27U | 0.289
A22U C46G | 0.166
A22U G42A | 0.264
A24C G25U | 0.388
A24C A71G | 0.99

Variant | self-cleavage
A23C C37A | 0.18
A24G U33C | 0.125
A24G U33G | 0.0457
A22U A71C | 1.37
A23U A44C | 0.133
A23C A64G | 0.646
A23C G57A | 0.196
A22U C48A | 0.16
A24C A47G | 0.113
A24C A47C | 0.272
A23G U53C | 0.995
A24G U62G | 0.0667
A24G U62C | 0.257
A23G G51A | 0.781
A23G G51C | 0.91
A24G A61U | 0.084
G25A A45C | 0.109
A24G A41G | 0.78
A23G G25A | 0.413
A23G G25U | 0.357
A24U U60C | 1.09
A23U A47C | 0.386
A22U A43G | 0.237
